Experimental data as given in the supplement of paper PMC10065799, “High-throughput profiling of sequence recognition by tyrosine kinases and SH2 domains using bacterial peptide display” (eLife, 2023).

Columns and labels:
Fes = Fes (UniProt P07332); test: phosphorylation enrichment, bacterial display (enrichment ratio); higher = better substrate or ligand; peptides without Tyr show the background
Hck = Hck (UniProt P08631); test: as above
AncSZ = test: as above
FGFR1 = FGFR1 (UniProt P11362); test: as above
FGFR1, sequence (P11362 whole entry, looked up): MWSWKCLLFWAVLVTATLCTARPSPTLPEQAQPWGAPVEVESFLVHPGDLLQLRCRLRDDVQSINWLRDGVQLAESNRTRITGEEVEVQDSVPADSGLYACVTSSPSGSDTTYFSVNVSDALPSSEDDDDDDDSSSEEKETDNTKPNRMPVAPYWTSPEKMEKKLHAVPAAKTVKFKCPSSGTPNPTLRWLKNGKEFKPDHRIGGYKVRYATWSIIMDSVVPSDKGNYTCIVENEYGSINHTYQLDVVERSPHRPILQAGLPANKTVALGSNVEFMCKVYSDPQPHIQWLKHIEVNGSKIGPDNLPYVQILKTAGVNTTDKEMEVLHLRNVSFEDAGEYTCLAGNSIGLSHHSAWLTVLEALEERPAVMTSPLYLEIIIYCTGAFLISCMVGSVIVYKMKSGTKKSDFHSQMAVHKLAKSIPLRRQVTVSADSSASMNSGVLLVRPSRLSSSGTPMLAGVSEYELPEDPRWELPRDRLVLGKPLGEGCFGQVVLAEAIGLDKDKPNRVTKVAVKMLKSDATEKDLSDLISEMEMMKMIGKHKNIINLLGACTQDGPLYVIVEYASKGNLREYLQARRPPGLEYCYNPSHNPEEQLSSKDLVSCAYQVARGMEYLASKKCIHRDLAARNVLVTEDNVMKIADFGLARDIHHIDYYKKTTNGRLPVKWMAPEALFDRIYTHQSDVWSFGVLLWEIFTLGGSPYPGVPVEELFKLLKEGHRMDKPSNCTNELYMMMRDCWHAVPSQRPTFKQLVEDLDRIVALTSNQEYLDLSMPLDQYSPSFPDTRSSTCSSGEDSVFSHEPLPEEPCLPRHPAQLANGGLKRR

MERTK = MERTK (UniProt Q12866); test: as above
c-Src = test: as above
Fer (mouse) = test: as above
EPHB1 = EPHB1 (UniProt P54762); test: as above
EPHB1, sequence (P54762 whole entry, looked up): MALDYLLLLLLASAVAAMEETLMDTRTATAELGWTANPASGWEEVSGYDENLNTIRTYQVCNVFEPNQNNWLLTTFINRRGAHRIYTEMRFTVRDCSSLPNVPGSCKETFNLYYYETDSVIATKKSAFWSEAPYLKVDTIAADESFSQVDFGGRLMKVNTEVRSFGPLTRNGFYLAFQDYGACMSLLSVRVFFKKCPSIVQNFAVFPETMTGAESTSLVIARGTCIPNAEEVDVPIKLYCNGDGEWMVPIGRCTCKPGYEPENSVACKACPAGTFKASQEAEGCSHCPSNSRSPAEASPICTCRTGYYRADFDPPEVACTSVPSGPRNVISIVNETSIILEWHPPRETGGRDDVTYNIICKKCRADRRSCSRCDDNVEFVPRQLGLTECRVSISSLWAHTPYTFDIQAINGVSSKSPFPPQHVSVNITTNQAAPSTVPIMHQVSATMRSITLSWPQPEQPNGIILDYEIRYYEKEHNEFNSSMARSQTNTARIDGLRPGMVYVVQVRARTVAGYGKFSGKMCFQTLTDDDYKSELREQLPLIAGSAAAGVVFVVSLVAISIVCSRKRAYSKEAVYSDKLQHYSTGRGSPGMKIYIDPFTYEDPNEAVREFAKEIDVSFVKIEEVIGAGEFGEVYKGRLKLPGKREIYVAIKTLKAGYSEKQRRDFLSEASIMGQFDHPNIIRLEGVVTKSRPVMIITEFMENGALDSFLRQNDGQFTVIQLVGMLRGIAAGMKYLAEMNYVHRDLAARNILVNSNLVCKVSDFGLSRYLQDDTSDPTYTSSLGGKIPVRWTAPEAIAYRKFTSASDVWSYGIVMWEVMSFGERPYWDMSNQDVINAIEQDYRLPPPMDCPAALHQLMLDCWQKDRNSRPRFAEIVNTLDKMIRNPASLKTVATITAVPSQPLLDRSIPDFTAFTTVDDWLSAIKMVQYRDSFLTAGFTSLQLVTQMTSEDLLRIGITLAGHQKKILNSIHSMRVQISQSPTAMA

Jak2 = Jak2 (UniProt O60674); test: as above
Jak2, sequence (O60674 whole entry, looked up): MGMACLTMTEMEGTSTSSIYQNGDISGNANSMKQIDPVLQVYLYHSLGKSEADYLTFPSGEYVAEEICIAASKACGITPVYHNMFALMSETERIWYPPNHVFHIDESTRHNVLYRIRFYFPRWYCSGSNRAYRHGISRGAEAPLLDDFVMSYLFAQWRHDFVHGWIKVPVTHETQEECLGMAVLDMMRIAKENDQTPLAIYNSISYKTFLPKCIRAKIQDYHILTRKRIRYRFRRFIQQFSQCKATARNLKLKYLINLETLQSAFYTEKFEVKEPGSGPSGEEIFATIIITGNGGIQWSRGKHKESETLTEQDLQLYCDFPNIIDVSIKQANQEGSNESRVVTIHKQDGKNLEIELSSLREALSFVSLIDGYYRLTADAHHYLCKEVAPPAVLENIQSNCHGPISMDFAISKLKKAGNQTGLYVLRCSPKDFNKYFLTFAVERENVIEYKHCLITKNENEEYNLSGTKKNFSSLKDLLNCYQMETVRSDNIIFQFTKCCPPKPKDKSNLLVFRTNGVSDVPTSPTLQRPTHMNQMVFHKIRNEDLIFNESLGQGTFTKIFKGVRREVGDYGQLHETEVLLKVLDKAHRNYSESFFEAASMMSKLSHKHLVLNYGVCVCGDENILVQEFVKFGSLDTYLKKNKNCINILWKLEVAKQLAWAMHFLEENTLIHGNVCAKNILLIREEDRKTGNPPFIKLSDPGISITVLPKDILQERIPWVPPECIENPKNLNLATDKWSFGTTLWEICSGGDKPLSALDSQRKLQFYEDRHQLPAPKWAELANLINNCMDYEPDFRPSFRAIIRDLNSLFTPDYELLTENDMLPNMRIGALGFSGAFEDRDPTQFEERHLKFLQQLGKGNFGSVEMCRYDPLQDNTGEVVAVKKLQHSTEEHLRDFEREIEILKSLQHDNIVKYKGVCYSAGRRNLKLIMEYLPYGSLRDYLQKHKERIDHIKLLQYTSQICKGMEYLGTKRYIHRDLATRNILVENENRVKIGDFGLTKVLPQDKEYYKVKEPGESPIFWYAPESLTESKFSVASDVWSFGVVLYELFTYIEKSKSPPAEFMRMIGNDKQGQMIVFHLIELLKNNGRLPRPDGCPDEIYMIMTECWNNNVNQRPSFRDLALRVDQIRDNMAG

c-Abl (mouse) = test: as above
FGFR3 = FGFR3 (UniProt P22607); test: as above
FGFR3, sequence (P22607 whole entry, looked up): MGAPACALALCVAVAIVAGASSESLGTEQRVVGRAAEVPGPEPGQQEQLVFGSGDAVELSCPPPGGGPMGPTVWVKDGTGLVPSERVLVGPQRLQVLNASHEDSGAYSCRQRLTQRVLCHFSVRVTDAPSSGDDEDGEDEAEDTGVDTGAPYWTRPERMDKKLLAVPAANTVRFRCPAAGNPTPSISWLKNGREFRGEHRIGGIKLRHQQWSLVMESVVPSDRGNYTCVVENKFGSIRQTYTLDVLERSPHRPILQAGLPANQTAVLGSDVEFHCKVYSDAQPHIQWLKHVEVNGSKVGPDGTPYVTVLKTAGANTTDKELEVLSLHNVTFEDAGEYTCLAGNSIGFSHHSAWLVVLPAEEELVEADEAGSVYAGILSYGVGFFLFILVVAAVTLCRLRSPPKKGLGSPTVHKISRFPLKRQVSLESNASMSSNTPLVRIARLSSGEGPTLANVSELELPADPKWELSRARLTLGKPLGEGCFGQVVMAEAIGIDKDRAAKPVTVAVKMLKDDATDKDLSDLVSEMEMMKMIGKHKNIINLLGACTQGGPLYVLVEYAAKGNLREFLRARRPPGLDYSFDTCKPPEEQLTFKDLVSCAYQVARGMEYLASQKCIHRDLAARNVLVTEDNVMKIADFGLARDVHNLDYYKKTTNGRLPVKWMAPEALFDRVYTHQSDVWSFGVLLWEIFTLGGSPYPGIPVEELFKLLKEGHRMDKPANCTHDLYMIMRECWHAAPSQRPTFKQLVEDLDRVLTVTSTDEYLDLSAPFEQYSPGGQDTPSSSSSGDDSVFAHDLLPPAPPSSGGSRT

Fyn = Fyn (UniProt P06241); test: as above
EPHB2 = EPHB2 (UniProt P29323); test: as above
c-Src SH2 = test: SH2 binding enrichment of the phosphorylated peptide, bacterial display (enrichment ratio); higher = better substrate or ligand; peptides without Tyr show the background
SHP2-C SH2 = test: as above
Grb2 SH2 = Grb2 SH2 (UniProt P62993); test: as above
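Wherever SH2 binding enrichment of the phosphorylated peptide, bacterial display is given: peptide library displayed on the E. coli surface as eCPX fusions, selected cells deep-sequenced, score is each peptide's frequency after selection divided by its frequency in the input.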
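Wherever phosphorylation enrichment, bacterial display is given: 11-residue human phosphosite peptides and single-mutation variants displayed on the E. coli surface, counted by deep sequencing, each peptide's frequency after selection divided by its frequency in the unselected input library; frequency after pTyr selection over input frequency; kinase dosed for 20-30% of maximal phosphorylation in three min.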

Fes, sequence (P07332 whole entry, looked up): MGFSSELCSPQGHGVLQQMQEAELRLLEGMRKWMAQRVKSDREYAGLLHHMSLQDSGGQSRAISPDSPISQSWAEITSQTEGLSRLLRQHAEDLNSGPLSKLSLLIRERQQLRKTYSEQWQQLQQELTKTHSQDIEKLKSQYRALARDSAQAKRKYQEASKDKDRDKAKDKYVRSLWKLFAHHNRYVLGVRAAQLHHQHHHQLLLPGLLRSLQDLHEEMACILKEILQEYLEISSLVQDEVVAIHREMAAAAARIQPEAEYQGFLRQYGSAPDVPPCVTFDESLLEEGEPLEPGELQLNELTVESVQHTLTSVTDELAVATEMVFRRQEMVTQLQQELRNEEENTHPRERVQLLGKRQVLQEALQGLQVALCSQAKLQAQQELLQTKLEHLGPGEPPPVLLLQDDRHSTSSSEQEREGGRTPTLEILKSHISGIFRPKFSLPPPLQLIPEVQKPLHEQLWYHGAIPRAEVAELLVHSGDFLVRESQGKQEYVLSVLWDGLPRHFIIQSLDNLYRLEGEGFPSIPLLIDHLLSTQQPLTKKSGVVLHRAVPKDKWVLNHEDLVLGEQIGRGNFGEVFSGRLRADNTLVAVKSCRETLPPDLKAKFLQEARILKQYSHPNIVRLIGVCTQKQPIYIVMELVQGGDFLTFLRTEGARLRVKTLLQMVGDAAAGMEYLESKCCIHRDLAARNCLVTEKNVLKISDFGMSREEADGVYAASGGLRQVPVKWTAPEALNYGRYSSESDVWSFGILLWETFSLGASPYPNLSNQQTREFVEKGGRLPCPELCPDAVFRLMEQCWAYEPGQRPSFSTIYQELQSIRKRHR
Hck, sequence (P08631 whole entry, looked up): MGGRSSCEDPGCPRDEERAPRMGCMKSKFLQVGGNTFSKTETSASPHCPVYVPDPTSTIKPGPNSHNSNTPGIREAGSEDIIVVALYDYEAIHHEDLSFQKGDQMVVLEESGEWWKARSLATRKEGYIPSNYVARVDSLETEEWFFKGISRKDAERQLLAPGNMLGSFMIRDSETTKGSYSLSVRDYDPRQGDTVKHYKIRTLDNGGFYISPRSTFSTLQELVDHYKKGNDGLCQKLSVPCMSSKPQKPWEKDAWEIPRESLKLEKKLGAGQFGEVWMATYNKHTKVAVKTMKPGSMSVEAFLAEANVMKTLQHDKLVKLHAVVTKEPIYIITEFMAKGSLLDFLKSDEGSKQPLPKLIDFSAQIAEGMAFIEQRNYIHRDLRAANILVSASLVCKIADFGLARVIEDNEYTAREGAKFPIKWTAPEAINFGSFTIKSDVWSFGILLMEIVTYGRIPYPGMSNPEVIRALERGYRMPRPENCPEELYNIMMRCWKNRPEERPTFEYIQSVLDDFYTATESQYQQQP

| Sequence | phosphorylation enrichment (Fes) | phosphorylation enrichment (Hck) | phosphorylation enrichment (AncSZ) | phosphorylation enrichment (FGFR1) | phosphorylation enrichment (MERTK) | phosphorylation enrichment (c-Src) | phosphorylation enrichment (Fer (mouse)) | phosphorylation enrichment (EPHB1) | phosphorylation enrichment (Jak2) | phosphorylation enrichment (c-Abl (mouse)) | phosphorylation enrichment (FGFR3) | phosphorylation enrichment (Fyn) | phosphorylation enrichment (EPHB2) | SH2 binding enrichment (c-Src SH2) | SH2 binding enrichment (SHP2-C SH2) | SH2 binding enrichment (Grb2 SH2) |
| --- | --- | --- | --- | --- | --- | --- | --- | --- | --- | --- | --- | --- | --- | --- | --- | --- |
| KNNDGYTDYAE [MCFD2_Y135_I136T] | 1 | 0.461 | 0.941 | 0.515 | 0.458 | 0.383 | 0.381 | 0.475 | 0.831 | 0.85 | 0.597 | 0.463 | 0.57 | 1.79 | 0.588 | 0.766 |
| KNNSIYVVANI [VNN1_Y134] | 1.14 | 0.888 | 0.982 | 0.701 | 0.885 | 0.705 | 0.727 | 0.74 | 1.04 | 0.8 | 0.821 | 0.765 | 0.761 | 0.671 | 1.05 | 1.08 |
| KNSFKYYMSDD [ATRX_Y203_C200S] | 1.02 | 0.477 | 0.92 | 0.486 | 0.479 | 0.44 | 0.405 | 0.507 | 0.947 | 0.671 | 0.604 | 0.468 | 0.531 | 0.708 | 0.661 | 0.848 |
| KPLMPCMRYSR [SMARCE1_Y73_Y73C] | 0.791 | 0.517 | 0.821 | 0.407 | 0.538 | 0.444 | 0.452 | 0.404 | 0.756 | 0.781 | 0.476 | 0.458 | 0.535 | 0.485 | 0.558 | 0.808 |
| KRISCYEASFQ [PFKFB3_Y194_YF] | 1.11 | 0.49 | 0.973 | 0.523 | 0.527 | 0.568 | 0.593 | 0.58 | 1.06 | 0.88 | 0.85 | 0.452 | 0.536 | 0.502 | 0.53 | 0.64 |
| KRNSLYSFSDH [CCDC82_Y331_Q327R] | 0.55 | 0.964 | 0.531 | 0.411 | 4.12 | 1.33 | 0.829 | 0.458 | 0.416 | 0.569 | 0.471 | 1.54 | 0.379 | 0.548 | 0.846 | 0.89 |
| KRRGPYEMSPS [PLPP7_Y172_T174M] | 0.452 | 0.445 | 0.58 | 0.338 | 0.402 | 0.45 | 0.345 | 0.323 | 0.459 | 0.508 | 0.377 | 0.387 | 0.371 | 0.456 | 0.344 | 0.532 |
| KSLFHYRQFSA [CPS1_Y1491_YF] | 0.859 | 0.42 | 0.656 | 0.546 | 0.415 | 0.472 | 0.534 | 0.553 | 0.942 | 0.59 | 0.498 | 0.466 | 0.453 | 0.395 | 0.601 | 0.734 |
| KSMFVYCTPNK [ATP2A2_Y497_S495F] | 1.19 | 0.568 | 1.22 | 0.587 | 0.452 | 0.494 | 0.565 | 0.6 | 1.12 | 1.05 | 0.768 | 0.473 | 0.673 | 0.679 | 0.484 | 0.925 |
| KSPGEYVNIEF [IRS1_Y896] | 0.812 | 0.575 | 0.906 | 1.35 | 0.546 | 0.47 | 0.505 | 0.653 | 0.623 | 0.706 | 1.06 | 0.49 | 0.736 | 4.93 | 1.26 | 3.04 |
| KTDVHYRSLGG [DYSF_Y1858] | 0.515 | 0.371 | 0.468 | 0.334 | 0.377 | 0.359 | 0.335 | 0.329 | 0.48 | 0.426 | 0.511 | 0.364 | 0.371 | 0.472 | 0.649 | 0.74 |
| KVKVEYDMTVP [AHNAK_Y964_G962V] | 1.03 | 0.485 | 0.94 | 0.495 | 0.478 | 0.555 | 0.51 | 0.45 | 0.872 | 0.862 | 0.646 | 0.492 | 0.59 | 0.79 | 0.659 | 0.838 |
| KVVNEYVTKGQ [MYH7_Y410_G407V] | 0.601 | 0.402 | 0.806 | 0.431 | 0.375 | 0.433 | 0.393 | 0.358 | 0.53 | 0.513 | 0.489 | 0.36 | 0.451 | 0.369 | 0.798 | 0.857 |
| LAETSYVIVLE [MAGEA1_Y276_K278I] | 2.35 | 0.727 | 1.8 | 0.688 | 0.616 | 1 | 0.734 | 1.06 | 2.19 | 1.54 | 0.997 | 0.791 | 0.99 | 0.479 | 0.983 | 0.641 |
| LANNEYFFRVC | 1.19 | 0.53 | 1.23 | 1.31 | 0.517 | 0.55 | 0.505 | 0.733 | 1.38 | 0.698 | 1.47 | 0.74 | 0.917 | 0.634 | 0.884 | 1.05 |
| LDPIQYSKHPP [SQSTM1_Y433_T430P] | 0.663 | 0.795 | 0.691 | 0.624 | 0.384 | 0.303 | 0.634 | 0.473 | 0.481 | 0.448 | 0.828 | 0.472 | 0.588 | 0.451 | 0.838 | 0.885 |
